B1: 3TEL (three tandem TELSAM monomers) of 3TEL-rigid-DARPin (domain or fragment, human)
chain: GSIRLPAHLRLQPIYWSRDDVAQWLKWAENEFSLRPIDSNTFEMNGKALLLLTKEDFRYRSPHSGDELYELLQHILKQRPGGGGSTSIRLPAHLRLQPIYWSRDDVAQWLKWAENEFSLRPIDSNTFEMNGKALLLLTKEDFRYRSPHSGDVLYELLQHILKQRPGGGGSTSIRLPAHLRLQPIYWSRDDVAQWLKWAENEFSLRPIDSNTFEMNGKALLLLTKEDFRYRSPHSGDVLYELLQHILKQR
notes: residue printed before TEL S47, left after SUMO cleavage; first TEL-SAM domain of 3TEL (human ETS variant transcription factor 6), the only one with V112E; flexible inter-TELSAM linker, as in PDB ID 2QAR; second TEL-SAM domain of 3TEL (human ETS variant transcription factor 6); third TEL-SAM domain of 3TEL (human ETS variant transcription factor 6); written apart for the contacts between the two …

Experiments:
[1] = molecular target: the molecule itself; experiment: crystal structure; 1TEL-flex-vWa, 20 mg/mL, sitting drop, 100 mM Bis-Tris, pH 5.7, 3.0 M NaCl; P65, 1 molecule per asymmetric unit; contacts within the polymer and the crystal lattice
[2] = molecular target: the molecule itself; experiment: crystal structure; 3TEL-rigid-DARPin, 15 mg/mL, sitting drop, HEPES pH 7.3-7.4 with PEG; P1211, 2 molecules per asymmetric unit; contacts within the polymer and the crystal lattice
[3] = molecular target: B1; experiment: as above; details: both partners purified

Row | Binder | binding result [2] | further results
1 | 1TEL (single TELSAM monomer) of 1TEL-flex-vWa (domain or fragment, human, residue printed before TEL S47, left after SUMO cleavage; sterile alpha motif (SAM) domain of human ETS variant transcription factor 6 (TEL); Stood in the crystal joined on one chain with the vWa domain through one alanine; written apart for the contacts between the two parts) GSIALPAHLRLQPIYWSRDDVAQWLKWAENEFSLRPIDSNTFEMNGKALLLLTKEDFRYRSPHSGDELYELLQHILAQ |  | binding result [1]: binds
2 | 3TEL-rigid-DARPin (other, human, residue printed before TEL S47, left after SUMO cleavage; first TEL-SAM domain of 3TEL (human ETS variant transcription factor 6), the only one with V112E; flexible inter-TELSAM linker, as in PDB ID 2QAR; second TEL-SAM domain of 3TEL (human ETS variant transcription factor 6); third TEL-SAM domain of 3TEL (human ETS variant transcription factor 6); rigid alpha-helical connection between 3TEL and …) GSIRLPAHLRLQPIYWSRDDVAQWLKWAENEFSLRPIDSNTFEMNGKALLLLTKEDFRYRSPHSGDELYELLQHILKQRPGGGGSTSIRLPAHLRLQPIYWSRDDVAQWLKWAENEFSLRPIDSNTFEMNGKALLLLTKEDFRYRSPHSGDVLYELLQHILKQRPGGGGSTSIRLPAHLRLQPIYWSRDDVAQWLKWAENEFSLRPIDSNTFEMNGKALLLLTKEDFRYRSPHSGDVLYELLQHILKQRDLEAEAAAAEDLGKKLLEAARAGQDDEVRILMANGADVNATDNDGYTPLHLAASNGHLEIVEVLLKNGADVNASDLTGITPLHAAAATGHLEIVEVLLKHGADVNAYDNDGHTPLHLAAKYGHLEIVEVLLKHGADVNAQDKFGKTAFDISIDNGNEDLAEILQKLN | binds | 
3 | B1 | binds | 
4 | DARPin (Designed Ankyrin Repeat Protein) of 3TEL-rigid-DARPin (designed binder, Designed Ankyrin Repeat Protein (DARPin), modelled from PDB ID 4J7W; Stood in the crystal joined on one chain with 3TEL; also called DAPRin; source: E. coli BL21(DE3), purified, as part of the 3TEL-rigid-DARPin chain) DLGKKLLEAARAGQDDEVRILMANGADVNATDNDGYTPLHLAASNGHLEIVEVLLKNGADVNASDLTGITPLHAAAATGHLEIVEVLLKHGADVNAYDNDGHTPLHLAAKYGHLEIVEVLLKHGADVNAQDKFGKTAFDISIDNGNEDLAEILQKLN |  | binding result [3]: binds
